As a reminder, the Ki is the equilibrium dissociation constant of an inhibitor or competing ligand from its target.

This is an account of results in patent US20120135923A1, “Use of Melanocortins to Treat Dyslipidemia” (IPSEN PHARMA, S.A.S., priority 2009, published 2012).

Assay [1] concerns the target hMC1-R (human) (UniProt Q01726). In words: ratio Ki hMC1-R / Ki hMC4-R, same assay.
Assay [2] addresses hMC4-R (human) (UniProt P32245). In words: competition with [125I]-NDP-α-MSH, CHO-K1 membranes.
Assay [3] has as its target hMC5-R (human) (UniProt P33032). Described as above.
Assay [4] deals with hMC1-R (human) (UniProt Q01726). Described as above.
For assay [5], the target named is hMC3-R (human) (UniProt P41968). The description is as above.
The target in assay [6] is hMC4-R (human) (UniProt P32245). Briefly: cell-based or functional assay.
Assay [7] addresses hMC5-R (human) (UniProt P33032). In words: cell-based or functional assay.
The target in assay [8] is hMC1-R (human) (UniProt Q01726). Briefly: cell-based or functional assay.
In assay [9] the target is hMC3-R (human) (UniProt P41968). In words: cell-based or functional assay.
Assay [10] has as its target human melanocortin receptor subtype 5 (hMC5-R) (human), P33032. Briefly: [125I]-NDP-α-MSH competition, membranes.
Assay [11] deals with human melanocortin receptor subtype 4 (hMC4-R) (human), P32245. In words: [125I]-NDP-α-MSH competition, membranes.
Assay [12] has as its target human melanocortin receptor subtype 1 (hMC1-R) (human), Q01726. In words: [125I]-NDP-α-MSH competition, membranes.

Bridge positions count the residues as written; N and C are the ends. Square brackets hold non-standard residues; d marks the D form. Ends that are not written are not given here. Bip = N[C@@H](Cc1ccc(-c2ccccc2)cc1)C(=O)O; 2Nal = N[C@@H](Cc1ccc2ccccc2c1)C(=O)O; d2Nal = N[C@H](Cc1ccc2ccccc2c1)C(=O)O; Bta = N[C@@H](Cc1csc2ccccc12)C(=O)O; hArg = N=C(N)NCCCC[C@H](N)C(=O)O; Pen = CC(C)(S)[C@H](N)C(=O)O; Nle = CCCC[C@H](N)C(=O)O; Ava = NCCCCC(=O)O; GABA = NCCCC(=O)O; βAla = NCCC(=O)O

Sequence of hMC1-R (human) (Q01726 whole entry): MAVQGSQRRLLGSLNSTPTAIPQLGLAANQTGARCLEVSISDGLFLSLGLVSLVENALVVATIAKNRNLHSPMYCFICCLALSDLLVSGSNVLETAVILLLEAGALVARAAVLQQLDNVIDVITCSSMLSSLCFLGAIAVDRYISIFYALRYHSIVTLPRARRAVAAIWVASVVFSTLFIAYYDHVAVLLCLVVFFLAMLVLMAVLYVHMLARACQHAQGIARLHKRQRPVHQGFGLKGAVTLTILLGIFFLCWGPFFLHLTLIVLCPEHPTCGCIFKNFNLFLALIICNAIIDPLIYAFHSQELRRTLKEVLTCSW
Sequence of hMC5-R (human) (P33032 whole entry): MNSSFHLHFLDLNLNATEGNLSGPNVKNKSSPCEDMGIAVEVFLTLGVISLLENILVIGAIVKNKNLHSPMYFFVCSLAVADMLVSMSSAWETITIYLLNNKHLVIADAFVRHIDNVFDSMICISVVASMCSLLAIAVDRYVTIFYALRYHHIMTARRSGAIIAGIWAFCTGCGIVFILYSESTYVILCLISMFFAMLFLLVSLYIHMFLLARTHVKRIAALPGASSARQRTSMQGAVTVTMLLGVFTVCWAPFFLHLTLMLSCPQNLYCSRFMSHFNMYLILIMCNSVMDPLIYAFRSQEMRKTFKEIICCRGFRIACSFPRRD
Sequence of hMC3-R (human) (P41968 whole entry): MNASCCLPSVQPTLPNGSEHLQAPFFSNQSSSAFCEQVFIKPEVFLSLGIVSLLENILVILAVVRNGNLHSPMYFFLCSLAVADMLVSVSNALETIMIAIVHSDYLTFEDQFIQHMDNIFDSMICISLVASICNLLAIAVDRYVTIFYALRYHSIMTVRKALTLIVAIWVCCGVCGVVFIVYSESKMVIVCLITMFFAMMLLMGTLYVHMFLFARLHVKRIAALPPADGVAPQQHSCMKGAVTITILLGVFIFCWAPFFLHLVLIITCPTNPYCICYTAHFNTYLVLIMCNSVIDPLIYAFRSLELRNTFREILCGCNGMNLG
Sequence of hMC4-R (human) (P32245 whole entry): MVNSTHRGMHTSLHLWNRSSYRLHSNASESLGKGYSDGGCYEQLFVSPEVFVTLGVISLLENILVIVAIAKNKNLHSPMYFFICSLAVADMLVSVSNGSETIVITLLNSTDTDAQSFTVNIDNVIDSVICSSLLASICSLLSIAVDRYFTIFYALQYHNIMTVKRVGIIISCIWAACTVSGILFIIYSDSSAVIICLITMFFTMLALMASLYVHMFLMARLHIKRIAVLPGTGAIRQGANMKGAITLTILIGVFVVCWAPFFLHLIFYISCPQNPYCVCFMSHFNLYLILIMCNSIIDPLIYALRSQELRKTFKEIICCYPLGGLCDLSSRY
Sequence of human melanocortin receptor subtype 1 (hMC1-R) (human), Q01726 (Q01726 whole entry): as the sequence (Q01726 whole entry) above
Sequence of human melanocortin receptor subtype 5 (hMC5-R) (human), P33032 (P33032 whole entry): as the sequence (P33032 whole entry) above
Sequence of human melanocortin receptor subtype 4 (hMC4-R) (human), P32245 (P32245 whole entry): as the sequence (P32245 whole entry) above

Turning to [dF]CH[d(Et)Tyr]RW[βAla][dC]T-NH2 (disulfide 2-8) [D-Phe-c(Cys-His-D-(Et)Tyr-Arg-Trp-β-Ala-D-Cys)-Thr-NH2], the Ki hMC1-R/MC4-R in [1] is 0. For the same molecule, the Ki was 1.1 nM in assay [2], 2.9 nM in assay [3], 0.05 nM in [4] and 9.3 nM in assay [5].

B1: Ac-Nle-c(Cys-His-D-Phe-Arg-Trp-Apn-Cys)-NH2 (peptide)
peptide: Ac-[Nle]CH[dF]RW[Ava]C-NH2
modifications: disulfide 2-8
SMILES: CCCC[C@H](NC(C)=O)C(=O)N[C@H]1CSSC[C@@H](C(N)=O)NC(=O)CCCCNC(=O)[C@H](Cc2c[nH]c3ccccc23)NC(=O)[C@H](CCCNC(=N)N)NC(=O)[C@@H](Cc2ccccc2)NC(=O)[C@H](Cc2c[nH]cn2)NC1=O
Consider B1, for which the cAMP EC50 in assay [6] was 0.0492 nM; in [7], 1.73 nM; in assay [8], 0.76 nM; in assay [9] it was 0.199 nM.

B2: D-Phe-c(Cys-His-D-Phe-hArg-Bip-β-Ala-D-Cys)-Thr-NH2 (peptide)
peptide: [dF]CH[dF][hArg][Bip][βAla][dC]T-NH2
modifications: disulfide 2-8; N-terminus assumed
SMILES: C[C@@H](O)[C@H](NC(=O)[C@H]1CSSC[C@H](NC(=O)[C@H](N)Cc2ccccc2)C(=O)N[C@@H](Cc2c[nH]cn2)C(=O)N[C@H](Cc2ccccc2)C(=O)N[C@@H](CCCCNC(=N)N)C(=O)N[C@@H](Cc2ccc(-c3ccccc3)cc2)C(=O)NCCC(=O)N1)C(N)=O
Turning to B2, the Ki hMC1-R/MC4-R in [1] was 0.01. Moreover, the Ki in assay [2] is 172 nM; in [3], 1220 nM; in assay [4], 1.68 nM; in [5] it was 1260 nM.

B3: D-Phe-c(Cys-His-D-Phe-Arg-Bip-β-Ala-D-Cys)-Thr-NH2 (peptide)
peptide: [dF]CH[dF]R[Bip][βAla][dC]T-NH2
modifications: disulfide 2-8; N-terminus assumed
SMILES: C[C@@H](O)[C@H](NC(=O)[C@H]1CSSC[C@H](NC(=O)[C@H](N)Cc2ccccc2)C(=O)N[C@@H](Cc2c[nH]cn2)C(=O)N[C@H](Cc2ccccc2)C(=O)N[C@@H](CCCNC(=N)N)C(=O)N[C@@H](Cc2ccc(-c3ccccc3)cc2)C(=O)NCCC(=O)N1)C(N)=O
Consider B3, for which the Ki hMC1-R/MC4-R in [1] turned out to be 0.01. Moreover, the Ki was found to be 583 nM in assay [2], 1130 nM in assay [3], 5.8 nM in assay [4] and 3370 nM in assay [5].

Consider [dF]CH[d(Et)Tyr][hArg]W[βAla][dC]T-NH2 (disulfide 2-8) [D-Phe-c(Cys-His-D-(Et)Tyr-hArg-Trp-β-Ala-D-Cys)-Thr-NH2], for which the cAMP EC50 in [6] was 5380 nM; in [7], 2.38 nM; in assay [8], 0.345 nM; in [9] it was 2.71 nM.

B4: Ac-Nle-c(Cys-D-Ala-His-D-Phe-Arg-Trp-D-Ala-Cys)-NH2 (peptide)
peptide: Ac-[Nle]C[dA]H[dF]RW[dA]C-NH2
modifications: disulfide 2-9
SMILES: CCCC[C@H](NC(C)=O)C(=O)N[C@H]1CSSC[C@@H](C(N)=O)NC(=O)[C@@H](C)NC(=O)[C@H](Cc2c[nH]c3ccccc23)NC(=O)[C@H](CCCNC(=N)N)NC(=O)[C@@H](Cc2ccccc2)NC(=O)[C@H](Cc2c[nH]cn2)NC(=O)[C@@H](C)NC1=O
On to B4, for which the Ki hMC1-R/MC4-R in [1] is 0.08. The Ki was found to be 48 nM in [2], 4940 nM in [3], 3.93 nM in assay [4] and 876 nM in assay [5].

With Ac-[Nle]CH[d2Nal]RW[GABA]C-NH2 (disulfide 2-8) [Ac-Nle-c(Cys-His-D-2-Nal-Arg-Trp-Gaba-Cys)-NH2], the Ki hMC1-R/MC4-R in assay [1] was found to be 1.05. Besides, the Ki stood at 0.375 nM in assay [2], 1.11 nM in assay [3], 0.393 nM in assay [4] and 1.86 nM in assay [5]. For the same molecule, the cAMP Kb is 0.782 nM in assay [6] and 18.4 nM in assay [9]. In addition, the cAMP EC50 stood at 0.153 nM in [7] and 0.231 nM in assay [8].

B5: D-Phe-c(Cys-His-D-Phe-Arg-Trp-Gaba-D-Cys)-Thr-NH2 (peptide)
peptide: [dF]CH[dF]RW[GABA][dC]T-NH2
modifications: disulfide 2-8; N-terminus assumed
SMILES: C[C@@H](O)[C@H](NC(=O)[C@H]1CSSC[C@H](NC(=O)[C@H](N)Cc2ccccc2)C(=O)N[C@@H](Cc2c[nH]cn2)C(=O)N[C@H](Cc2ccccc2)C(=O)N[C@@H](CCCNC(=N)N)C(=O)N[C@@H](Cc2c[nH]c3ccccc23)C(=O)NCCCC(=O)N1)C(N)=O
On to B5, for which the Ki hMC1-R/MC4-R in assay [1] turned out to be 0.09. Moreover, the Ki in assay [2] is 4.75 nM; in assay [3], 1260 nM; in assay [4] it was 0.42 nM; in assay [5], 106 nM.

Turning to [dF]CH[d(Et)Tyr][hArg][Bip][βAla][dC]T-NH2 (disulfide 2-8) [D-Phe-c(Cys-His-D-(Et)Tyr-hArg-Bip-β-Ala-D-Cys)-Thr-NH2, listing 1 of 2 here], the Ki hMC1-R/MC4-R in [1] stood at 0. Moreover, the Ki in assay [2] was 36.9 nM; in assay [3], 38 nM; in assay [4], 0.128 nM; in assay [5], 85.6 nM.

B6: Ac-Nle-c(Pen-His-D-Phe-Arg-Trp-Gaba-Cys)-NH2 (peptide)
peptide: Ac-[Nle][Pen]H[dF]RW[GABA]C-NH2
modifications: disulfide 2-8
SMILES: CCCC[C@H](NC(C)=O)C(=O)N[C@@H]1C(=O)N[C@@H](Cc2c[nH]cn2)C(=O)N[C@H](Cc2ccccc2)C(=O)N[C@@H](CCCNC(=N)N)C(=O)N[C@@H](Cc2c[nH]c3ccccc23)C(=O)NCCCC(=O)N[C@H](C(N)=O)CSSC1(C)C
As to B6, the Ki hMC1-R/MC4-R in assay [1] stood at 0.09. In addition, the Ki in assay [2] was 5.89 nM; in [3] it was 2.56 nM; in [4], 0.537 nM; in assay [5], 86.1 nM.

With Ac-YRC[dA]H[dF]RWC-NH2 (disulfide 3-9) [Ac-Tyr-Arg-c(Cys-D-Ala-His-D-Phe-Arg-Trp-Cys)-NH2], the Ki in [10] stood at 714 nM.

B7: Ac-Nle-c(Cys-D-Ala-His-D-2-Nal-Arg-2-Nal-Cys)-NH2 (peptide)
peptide: Ac-[Nle]C[dA]H[d2Nal]R[2Nal]C-NH2
modifications: disulfide 2-8
SMILES: CCCC[C@H](NC(C)=O)C(=O)N[C@H]1CSSC[C@@H](C(N)=O)NC(=O)[C@H](Cc2ccc3ccccc3c2)NC(=O)[C@H](CCCNC(=N)N)NC(=O)[C@@H](Cc2ccc3ccccc3c2)NC(=O)[C@H](Cc2c[nH]cn2)NC(=O)[C@@H](C)NC1=O
As for B7, the Ki hMC1-R/MC4-R in assay [1] worked out at 12.8. For the same molecule, the Ki is 2.53 nM in assay [2], 94.6 nM in assay [3], 32.5 nM in [4] and 5.85 nM in [5].

B8: D-Phe-c(Cys-His-D-Phe-Arg-Trp-β-Ala-D-Cys)-Thr-NH2 (peptide)
peptide: [dF]CH[dF]RW[βAla][dC]T-NH2
modifications: disulfide 2-8; N-terminus assumed
SMILES: C[C@@H](O)[C@H](NC(=O)[C@H]1CSSC[C@H](NC(=O)[C@H](N)Cc2ccccc2)C(=O)N[C@@H](Cc2c[nH]cn2)C(=O)N[C@H](Cc2ccccc2)C(=O)N[C@@H](CCCNC(=N)N)C(=O)N[C@@H](Cc2c[nH]c3ccccc23)C(=O)NCCC(=O)N1)C(N)=O
Regarding B8, the Ki hMC1-R/MC4-R in assay [1] is 0.08. The Ki came to 2.58 nM in [2], 344 nM in assay [3], 0.207 nM in assay [4] and 43.2 nM in assay [5].

B9: D-Phe-c(Cys-His-D-Phe-hArg-Trp-β-Ala-D-Cys)-Thr-NH2 (peptide)
peptide: [dF]CH[dF][hArg]W[βAla][dC]T-NH2
modifications: disulfide 2-8; N-terminus assumed
SMILES: C[C@@H](O)[C@H](NC(=O)[C@H]1CSSC[C@H](NC(=O)[C@H](N)Cc2ccccc2)C(=O)N[C@@H](Cc2c[nH]cn2)C(=O)N[C@H](Cc2ccccc2)C(=O)N[C@@H](CCCCNC(=N)N)C(=O)N[C@@H](Cc2c[nH]c3ccccc23)C(=O)NCCC(=O)N1)C(N)=O
For the molecule B9, the Ki hMC1-R/MC4-R in [1] was found to be 0.04. Also, the Ki in assay [2] was found to be 10.3 nM; in [3], 521 nM; in [4], 0.442 nM; in assay [5] it was 123 nM.

With IC[dA]H[dF]RWC-NH2 (disulfide 2-8; also: hydantoin ring from C(O) with Ile1-Cys2) [c[Hydantoin(C(O)-(Ile-Cys))-D-Ala-His-D-Phe-Arg-Trp-Cys]-NH2], the Ki in [11] was 41.6 nM; in [12], 53.4 nM.

B10: Ac-Nle-c(Asp-D-Ala-His-D-Phe-Arg-Bal-Lys)-NH2 (peptide)
peptide: Ac-[Nle]D[dA]H[dF]R[Bta]K-NH2
modifications: lactam 2-8
SMILES: CCCC[C@H](NC(C)=O)C(=O)N[C@H]1CC(=O)NCCCC[C@@H](C(N)=O)NC(=O)[C@H](Cc2csc3ccccc23)NC(=O)[C@H](CCCNC(=N)N)NC(=O)[C@@H](Cc2ccccc2)NC(=O)[C@H](Cc2c[nH]cn2)NC(=O)[C@@H](C)NC1=O
B10: the cAMP EC50 in assay [6] is 1.65 nM; in assay [7], above 10000 nM; in assay [8], 0.931 nM; in assay [9] it was 3.22 nM.

B11: Ac-Nle-c(Cys-D-Leu-His-D-Phe-Arg-Trp-Cys)-NH2 (peptide)
peptide: Ac-[Nle]C[dL]H[dF]RWC-NH2
modifications: disulfide 2-8
SMILES: CCCC[C@H](NC(C)=O)C(=O)N[C@H]1CSSC[C@@H](C(N)=O)NC(=O)[C@H](Cc2c[nH]c3ccccc23)NC(=O)[C@H](CCCNC(=N)N)NC(=O)[C@@H](Cc2ccccc2)NC(=O)[C@H](Cc2c[nH]cn2)NC(=O)[C@@H](CC(C)C)NC1=O
In the case of B11, the cAMP EC50 came to 0.0915 nM in assay [6], 78.5 nM in assay [7], 3.24 nM in assay [8] and 0.465 nM in assay [9].

Regarding [dF]CH[d(Et)Tyr][hArg][Bip][βAla][dC]T-NH2 (disulfide 2-8) [D-Phe-c(Cys-His-D-(Et)Tyr-hArg-Bip-β-Ala-D-Cys)-Thr-NH2, listing 2 of 2 here], the cAMP EC50 was 86.9 nM in [6], 31.8 nM in [7], 0.685 nM in [8] and 81.8 nM in assay [9].
